Source: patent publication US20240262923A1 (Sanofi, published 2024)
Where two headings read alike, the source gives them in different places. One block for each binder: values may come before it.

Columns and labels:
[1] = target: T1, human His-tagged 4-1BB recombinant protein (human, UniProt Q07011 24-186); assay: ELISA (FIG. 7A), bivalent monoparatopic Fab-like
T1 construct: also called human 4-1BB; h4-1BB; not shown: His tag

[2] = target: T2, cynomolgus monkey PD-1 (SPR analyte) (cynomolgus monkey, UniProt B0LAJ3 25-170); assay: SPR, KD on cyPD-1 against KD on hPD-1
T2 construct: also called cyPD-1
T2 sequence (B0LAJ3 entry or part of it limits assumed): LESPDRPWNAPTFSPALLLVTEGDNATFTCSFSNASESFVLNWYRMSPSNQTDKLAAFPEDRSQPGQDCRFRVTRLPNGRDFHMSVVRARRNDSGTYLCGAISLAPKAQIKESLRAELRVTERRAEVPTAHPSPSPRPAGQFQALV

[3] = target: T3, human PD-1 expressed on cells (300.19 pre-B cells, PD-1 NFAT-luc2 Jurkat cells, primary T-cells) (human, UniProt Q15116 25-288); assay: flow cytometry on Jurkat reporter cells
T3 construct: GenBank NP 005009.2 printed; also called hPD-1; Pre-B hPD-1
T3 sequence (Q15116 25-288 limits assumed): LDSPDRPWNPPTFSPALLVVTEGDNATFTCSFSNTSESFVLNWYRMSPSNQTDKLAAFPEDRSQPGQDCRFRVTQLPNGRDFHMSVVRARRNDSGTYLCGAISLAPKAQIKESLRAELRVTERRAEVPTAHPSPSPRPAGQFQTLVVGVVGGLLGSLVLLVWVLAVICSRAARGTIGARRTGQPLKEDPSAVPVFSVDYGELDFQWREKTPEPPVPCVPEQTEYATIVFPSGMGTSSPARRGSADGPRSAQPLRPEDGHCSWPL

[4] = target: T4, human 4-1BB expressed on cells (300.19 pre-B cells, Jurkat NF-κB-luc2P cells, primary T-cells) (human, UniProt Q07011 24-255); assay: flow cytometry on Jurkat reporter cells
T4 construct: also called h4-1BB; Pre-B h4-1BB
T4 sequence (Q07011 24-255 limits assumed): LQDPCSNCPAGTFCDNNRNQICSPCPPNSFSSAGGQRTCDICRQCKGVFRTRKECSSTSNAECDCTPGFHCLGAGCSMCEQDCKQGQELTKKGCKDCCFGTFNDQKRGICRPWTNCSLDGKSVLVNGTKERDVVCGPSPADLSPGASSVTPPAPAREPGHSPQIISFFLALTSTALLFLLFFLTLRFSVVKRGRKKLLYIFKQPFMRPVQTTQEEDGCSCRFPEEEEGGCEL

[5] = target: T5, human PD-1 (SPR analyte) (human, UniProt Q15116 25-167, limits assumed); assay: SPR (Biacore 8K), binder captured on anti-Fc chip, target as analyte, 1:1 model
T5 construct: Soluble analyte in SPR; also called hPD-1
T5 sequence (Q15116 25-167 limits assumed): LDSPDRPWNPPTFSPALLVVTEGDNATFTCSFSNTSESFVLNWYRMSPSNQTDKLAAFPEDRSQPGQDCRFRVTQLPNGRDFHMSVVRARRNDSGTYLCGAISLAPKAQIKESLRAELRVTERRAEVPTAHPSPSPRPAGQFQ

[6] = target: T6, human 4-1BB (SPR analyte) (human, UniProt Q07011 24-186); assay: as above
T6 construct: also called h4-1BB

[7] = target: T7, cynomolgus monkey 4-1BB (SPR analyte) (cynomolgus monkey, UniProt A9YYE7 24-186); assay: SPR, KD on cy4-1BB against KD on h4-1BB
T7 construct: also called cy4-1BB
T7 sequence: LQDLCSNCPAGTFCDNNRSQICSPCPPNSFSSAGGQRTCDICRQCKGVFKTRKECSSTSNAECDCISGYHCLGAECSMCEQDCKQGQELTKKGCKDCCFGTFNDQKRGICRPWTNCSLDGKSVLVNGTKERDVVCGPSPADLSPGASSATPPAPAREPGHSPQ

[8] = target: T2, cynomolgus monkey PD-1 (SPR analyte); assay: SPR (Biacore 8K), binder captured on anti-Fc chip, target as analyte, 1:1 model
[9] = target: T5, human PD-1 (SPR analyte); assay: as above; remark: listed apart in the source
[10] = target: T7, cynomolgus monkey 4-1BB (SPR analyte); assay: as above
[11] = target: T6, human 4-1BB (SPR analyte); assay: as above; remark: listed apart in the source
[12] = target: T3, human PD-1 expressed on cells (300.19 …); assay: flow cytometry on transfected 300.19 pre-B cells
[13] = target: T4, human 4-1BB expressed on cells (300.19 …); assay: flow cytometry on transfected 300.19 pre-B cells
[14] = target: T8, cynomolgus monkey PD-1 expressed on 300.19 pre-B cells (cynomolgus monkey, UniProt B0LAJ3 25-288); assay: flow cytometry on transfected 300.19 pre-B cells
T8 construct: also called cyPD-1; Pre-B cyPD-1
T8 sequence (B0LAJ3 entry or part of it limits assumed): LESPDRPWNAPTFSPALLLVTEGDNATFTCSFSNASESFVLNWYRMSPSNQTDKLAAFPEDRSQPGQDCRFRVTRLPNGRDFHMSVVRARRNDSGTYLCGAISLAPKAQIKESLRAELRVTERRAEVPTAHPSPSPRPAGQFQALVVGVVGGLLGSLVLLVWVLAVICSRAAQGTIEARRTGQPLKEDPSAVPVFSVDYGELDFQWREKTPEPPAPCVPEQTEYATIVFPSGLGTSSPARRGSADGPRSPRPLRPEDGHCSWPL

[15] = target: T9, cynomolgus monkey 4-1BB expressed on 300.19 pre-B cells (cynomolgus monkey, UniProt A9YYE7 24-254); assay: flow cytometry on transfected 300.19 pre-B cells
T9 construct: whole, on cells; also called cy4-1BB; Pre-B cy4-1BB

[16] = target: T3, human PD-1 expressed on cells (300.19 …); assay: cell-based or functional assay
[17] = target: T4, human 4-1BB expressed on cells (300.19 …); assay: cell-based or functional assay
[18] = target: T3, human PD-1 expressed on cells (300.19 …); assay: flow cytometry on anti-CD3-stimulated primary human T-cells
[19] = target: T10, PD-1 in the PD-1/PD-L1 interaction assay (human, UniProt Q15116 25-167, limits assumed); assay: PD-1/PD-L1 interaction assay, Relative EC50, IgG1 LALA
T10 sequence (Q15116 25-167 limits assumed): as the sequence (Q15116 25-167 limits assumed) above

[20] = target: T10, PD-1 in the PD-1/PD-L1 interaction assay; assay: PD-1/PD-L1 interaction assay, EC50 of Fab against IgG1 LALA
[21] = target: T10, PD-1 in the PD-1/PD-L1 interaction assay; assay: PD-1/PD-L1 interaction assay, Relative EC50, Fab

B1: anti-4-1BB clone #5c VHH, bivalent monoparatopic Fab-like construct (other)
chain 1: QVQLQESGGGLVQAGGSLRLSCAASGDTFSSYAMGWFRQAPGERLEWVASINPSGGSQSYHPSVKDRFTISRDNGKNILFLQLDKLNPEDTAVYVCARGTRYKIFASGQGTQVTVSS
chain 2: QVQLQESGGGLVQAGGSLRLSCAASGDTFSSYAMGWFRQAPGERLEWVASINPSGGSQSYHPSVKDRFTISRDNGKNILFLQLDKLNPEDTAVYVCARGTRYKIFASGQGTQVTVSS
notes: not shown: human CL (lambda) constant domain, tag if any; human IgG1 CH1 domain, HA and 6-His tags
binding result [1]: binds

B2: Construct #3 (anti-4-1BB/anti-PD-1 bispecific binding molecule) (bispecific antibody, IgG1)
heavy: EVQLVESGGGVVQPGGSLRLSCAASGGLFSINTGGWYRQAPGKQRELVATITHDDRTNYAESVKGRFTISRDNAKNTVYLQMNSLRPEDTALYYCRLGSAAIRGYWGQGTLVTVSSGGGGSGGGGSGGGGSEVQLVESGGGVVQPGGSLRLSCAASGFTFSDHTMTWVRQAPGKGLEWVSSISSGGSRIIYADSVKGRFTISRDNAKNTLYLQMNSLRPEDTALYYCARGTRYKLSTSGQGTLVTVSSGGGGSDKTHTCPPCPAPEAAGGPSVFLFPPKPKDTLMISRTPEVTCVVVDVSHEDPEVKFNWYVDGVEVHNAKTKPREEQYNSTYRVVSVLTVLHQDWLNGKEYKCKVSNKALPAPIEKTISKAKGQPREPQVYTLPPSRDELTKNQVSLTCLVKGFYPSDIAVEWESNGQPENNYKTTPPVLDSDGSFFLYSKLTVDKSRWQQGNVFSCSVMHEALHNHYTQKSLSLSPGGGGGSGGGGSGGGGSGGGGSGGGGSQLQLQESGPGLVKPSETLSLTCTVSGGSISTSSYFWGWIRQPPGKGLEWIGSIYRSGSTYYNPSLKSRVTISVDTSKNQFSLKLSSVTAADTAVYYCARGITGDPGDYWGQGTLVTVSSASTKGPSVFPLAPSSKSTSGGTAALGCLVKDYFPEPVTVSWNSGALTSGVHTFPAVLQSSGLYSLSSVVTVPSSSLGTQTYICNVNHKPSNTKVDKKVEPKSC
light: EIVLTQSPATLSLSPGERATLSCGASQSVSINFLAWYQQKPGLAPRLLIYEASSRATGIPDRFSGSGSGTDFTLTISRLEPEDFAVYYCQQYGSSPYTFGQGTKLEIKRTVAAPSVFIFPPSDEQLKSGTASVVCLLNNFYPREAKVQWKVDNALQSGNSQESVTEQDSKDSTYSLSSTLTLSKADYEKHKVYACEVTHQGLSSPVTKSFNRGEC
notes: also called Original Construct #3
Ratio KD cyno/human [2]: 2.6 fold | EC50 [3]: 12.3 nM | Emax [3]: 321 MFI | EC50 [4]: 0.191 nM | Kd [5]: 16 nM | Kd [6]: 7.82 nM | Ratio KD cyno/human [7]: 2.1 fold | Kd [8]: 18.2 nM | Kd [9]: 7.05 nM | Kd [10]: 25.1 nM | Kd [11]: 11.8 nM | EC50 [12]: 3.69 nM | Emax [12]: 3750 MFI | EC50 [13]: 0.299 nM | EC50 [14]: 7.77 nM | Emax [14]: 13800 MFI | EC50 [15]: 0.312 nM | IC50 (nM) PD-1 reporter assay [16]: 6.7 nM | EC50 (nM) 4-1BB reporter assay [17]: 0.1 nM

The next lines start with the values.

EC50 [3]: 0.278 nM | Emax [3]: 280 MFI | EC50 [12]: 0.284 nM | Emax [12]: 6240 MFI | binding result [13]: no binding | EC50 [14]: 0.417 nM | Emax [14]: 17700 MFI | binding result [15]: no binding | IC50 (nM) PD-1 reporter assay [16]: 2.8 nM | EC50 [18]: 0.205 nM | EC50 [19]: 0.278 nM
B3: anti-PD-1 antibody clone T5 (IgG1 LALA) (antibody, V domains shown)
VH: QLQLQESGPGLVKPSETLSLTCTVSGGSISTSSYFWGWIRQPPGKGLEWIGSIYRSGSTYYNPSLKSRVTISVDTSKNQFSLKLSSVTAADTAVYYCARGITGDPGDYWGQGTLVTVSS
VL: EIVLTQSPATLSLSPGERATLSCGASQSVSINFLAWYQQKPGLAPRLLIYEASSRATGIPDRFSGSGSGTDFTLTISRLEPEDFAVYYCQQYGSSPYTFGQGTKLEIK

Ratio Fab:IgG1 [20]: 176 fold | EC50 [21]: 48.8 nM
B4: anti-PD-1 antibody clone T5, Fab format (Fab, V domains shown)
VH: QLQLQESGPGLVKPSETLSLTCTVSGGSISTSSYFWGWIRQPPGKGLEWIGSIYRSGSTYYNPSLKSRVTISVDTSKNQFSLKLSSVTAADTAVYYCARGITGDPGDYWGQGTLVTVSS
VL: EIVLTQSPATLSLSPGERATLSCGASQSVSINFLAWYQQKPGLAPRLLIYEASSRATGIPDRFSGSGSGTDFTLTISRLEPEDFAVYYCQQYGSSPYTFGQGTKLEIK
